Target: soluble recombinant pMHC II I-E^d/λ2^315 (not stated | mouse)
Test: SPR

| Kd | Substance |
| --- | --- |
| 7 µM | soluble scTCR Vαβ 4B2A1 mutant PRS (L115P^linker/K199R^Vβ/L214S^Vβ) |
| 5.8 µM | soluble scTCR Vαβ 4B2A1 mutant PS (L115P^linker/L214S^Vβ) |

From publication PMC3557450
